Numbering of substitutions follows the chain as printed.
Key:
Experiment in all cases: two-hybrid; LexA-Cdc1 bait (pBTM116 or pBTM116BN) with Gal4 activation domain-Cdc27 prey (pGAD2F-Cdc27) in S. cerevisiae CTY10-5d; ONPG liquid culture beta-galactosidase assay, mean of triplicates, as percent of wild-type Cdc1
Conditions in all cases: partners not purified
[1] = molecular target: T1, Cdc1-J3 (Schizosaccharomyces pombe, UniProt P87324 1-462, Leu-GlyValProLeuLeu-Asp)
T1 construct: Cdc1, S. pombe, with a pentapeptide inserted after residue 62; also called E3; E8; source: yeast two-hybrid fusion, in S. cerevisiae CTY10-5d
T1 sequence (looked up): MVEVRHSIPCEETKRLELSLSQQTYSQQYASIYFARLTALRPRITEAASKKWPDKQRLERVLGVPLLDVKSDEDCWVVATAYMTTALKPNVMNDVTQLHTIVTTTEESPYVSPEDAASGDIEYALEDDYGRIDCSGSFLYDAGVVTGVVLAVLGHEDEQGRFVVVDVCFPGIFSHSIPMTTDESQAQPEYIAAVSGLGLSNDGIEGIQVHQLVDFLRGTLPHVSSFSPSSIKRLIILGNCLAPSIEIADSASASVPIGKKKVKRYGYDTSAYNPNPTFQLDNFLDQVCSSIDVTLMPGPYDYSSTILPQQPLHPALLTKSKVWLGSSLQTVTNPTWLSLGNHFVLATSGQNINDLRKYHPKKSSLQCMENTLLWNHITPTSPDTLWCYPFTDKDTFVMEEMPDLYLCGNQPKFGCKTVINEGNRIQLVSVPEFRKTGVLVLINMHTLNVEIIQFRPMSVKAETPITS

[2] = molecular target: T2, Cdc1-A8 (Schizosaccharomyces pombe, UniProt P87324 1-462, Pro374Ala)
T2 construct: Cdc1, S. pombe, point mutant; source: yeast two-hybrid fusion, in S. cerevisiae CTY10-5d
T2 sequence (looked up): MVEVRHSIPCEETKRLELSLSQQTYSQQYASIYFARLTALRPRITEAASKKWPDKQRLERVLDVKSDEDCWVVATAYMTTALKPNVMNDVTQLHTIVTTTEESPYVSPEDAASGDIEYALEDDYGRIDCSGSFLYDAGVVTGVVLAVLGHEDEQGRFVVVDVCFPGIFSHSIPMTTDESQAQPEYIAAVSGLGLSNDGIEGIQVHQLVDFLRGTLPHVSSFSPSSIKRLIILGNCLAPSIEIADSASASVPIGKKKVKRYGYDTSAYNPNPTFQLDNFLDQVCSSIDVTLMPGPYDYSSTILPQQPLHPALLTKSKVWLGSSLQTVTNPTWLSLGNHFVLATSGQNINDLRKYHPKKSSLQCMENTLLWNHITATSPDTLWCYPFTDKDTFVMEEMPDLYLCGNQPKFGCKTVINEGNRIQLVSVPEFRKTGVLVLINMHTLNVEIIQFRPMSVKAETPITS

[3] = molecular target: T3, Cdc1-A5 (Schizosaccharomyces pombe, UniProt P87324 1-462, Asn328Ala)
T3 construct: Cdc1, S. pombe, point mutant; source: yeast two-hybrid fusion, in S. cerevisiae CTY10-5d
T3 sequence (looked up): T2 sequence (looked up) with N328A, A374P

[4] = molecular target: T4, Cdc1-J21 (Schizosaccharomyces pombe, UniProt P87324 1-462, Leu-GlyValProGlnLeu-Asp)
T4 construct: Cdc1, S. pombe, with a pentapeptide inserted after residue 275; source: yeast two-hybrid fusion, in S. cerevisiae CTY10-5d
T4 sequence (looked up): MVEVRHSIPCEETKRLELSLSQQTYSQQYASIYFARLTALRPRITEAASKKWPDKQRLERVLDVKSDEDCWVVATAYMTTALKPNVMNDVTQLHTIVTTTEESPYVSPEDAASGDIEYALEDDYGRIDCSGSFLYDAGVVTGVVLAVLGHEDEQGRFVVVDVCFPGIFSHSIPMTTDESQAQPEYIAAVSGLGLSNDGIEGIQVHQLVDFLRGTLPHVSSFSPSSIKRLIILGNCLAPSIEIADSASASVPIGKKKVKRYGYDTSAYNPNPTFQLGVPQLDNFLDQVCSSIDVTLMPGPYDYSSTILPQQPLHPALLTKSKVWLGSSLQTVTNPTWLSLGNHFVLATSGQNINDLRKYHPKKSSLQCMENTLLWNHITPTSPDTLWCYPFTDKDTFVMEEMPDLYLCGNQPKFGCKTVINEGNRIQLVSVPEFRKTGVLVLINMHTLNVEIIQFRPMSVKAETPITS

B1: Cdc27 (fission yeast DNA polymerase delta C-subunit) (natural protein, Schizosaccharomyces pombe, UniProt P30261 1-372, looked up)
chain: MEEWRNFLDIKVINESSLVTVDNLSLQLDISSEKAQEYLNMFYQGNDFLYPIYLIHGQPIDDEINLEIDEESQPISNFPVLQYILCDKSSLQEKQSRLKSGYKTVIFALSSAPLSDFDELLPAVYEIREKDVLYKKEDADKYGFIFNENSVPRVLKKAPSTHSPQLSVPSKTSTIDKTDTRSTEKTKGKDIFSNARNQKGNSSRKNKKAPLENHKEKEPLLPKEEKLSEQAKRERDDLKNIMQLEDESVSTTSVHDSEDDNLDSNNFQLEIGTEAKSAAPDEPQEIIKSVSGGKRRGKRKVKKYATTKDEEGFLVTKEEEVWESFSEDENISTGTSNVVRNKPTTVNIATKKKNTAQSKPQQKSIMSFFGKK
notes: DNA polymerase delta C-subunit Cdc27, S. pombe; prey plasmid pGAD2F-Cdc27; also called pGAD2F-Cdc27; source: yeast two-hybrid fusion, in S. cerevisiae CTY10-5d
[1]
  two-hybrid beta-galactosidase activity, % of wild-type Cdc1: < 1%
[2]
  two-hybrid beta-galactosidase activity, % of wild-type Cdc1: 8%
[3]
  two-hybrid beta-galactosidase activity, % of wild-type Cdc1: 37%
[4]
  two-hybrid beta-galactosidase activity, % of wild-type Cdc1: < 1%
